Measurements published in PMC5103362 (Autophagy, 2016).

What was measured:
[1] = target: the molecule itself; test: crystal structure; full-length Atg38 after limited proteolysis with subtilisin; 2.2 Å, MAD with selenomethionine protein
[2] = target: T1, yeast complex I (Vps15-Vps34-Vps30-Atg14 heterotetramer) (S. cerevisiae, UniProt P22219 1-1454; P22543 1-875; Q02948 1-557; P38270 1-344); test: pull-down; GST affinity isolation: GST fusions of Atg38 on glutathione Sepharose, purified yeast complex I at 1.78 µM with 10-fold excess of GST fusion; 50 mM Tris pH 8.8, 150 mM NaCl, 1 mM TCEP, on ice 90 min; stained gel; details: both partners purified
T1 construct: Vps15, S. cerevisiae, subunit of complex I; Vps34, S. cerevisiae, subunit of complex I; Vps30/Atg6, S. cerevisiae, subunit of complex I; Atg14, S. cerevisiae, subunit of complex I; expected mass 379 kDa; also called CI; heterotetrameric S. cerevisiae complex I; copies: 1 + 1 + 1 + 1

[3] = target: T2, Vps15 (subunit of the purified yeast complex I) (S. cerevisiae, UniProt P22219 1-1454); test: SEC-MALS; purified yeast complex I (co-expressed, co-purified) and gel-filtration purified complex I + Atg38 on S200 10/30; 20 mM Tris pH 8.8, 150 mM NaCl, 1 mM TCEP; details: both partners purified
T2 construct: Vps15, S. cerevisiae
T2 sequence (looked up): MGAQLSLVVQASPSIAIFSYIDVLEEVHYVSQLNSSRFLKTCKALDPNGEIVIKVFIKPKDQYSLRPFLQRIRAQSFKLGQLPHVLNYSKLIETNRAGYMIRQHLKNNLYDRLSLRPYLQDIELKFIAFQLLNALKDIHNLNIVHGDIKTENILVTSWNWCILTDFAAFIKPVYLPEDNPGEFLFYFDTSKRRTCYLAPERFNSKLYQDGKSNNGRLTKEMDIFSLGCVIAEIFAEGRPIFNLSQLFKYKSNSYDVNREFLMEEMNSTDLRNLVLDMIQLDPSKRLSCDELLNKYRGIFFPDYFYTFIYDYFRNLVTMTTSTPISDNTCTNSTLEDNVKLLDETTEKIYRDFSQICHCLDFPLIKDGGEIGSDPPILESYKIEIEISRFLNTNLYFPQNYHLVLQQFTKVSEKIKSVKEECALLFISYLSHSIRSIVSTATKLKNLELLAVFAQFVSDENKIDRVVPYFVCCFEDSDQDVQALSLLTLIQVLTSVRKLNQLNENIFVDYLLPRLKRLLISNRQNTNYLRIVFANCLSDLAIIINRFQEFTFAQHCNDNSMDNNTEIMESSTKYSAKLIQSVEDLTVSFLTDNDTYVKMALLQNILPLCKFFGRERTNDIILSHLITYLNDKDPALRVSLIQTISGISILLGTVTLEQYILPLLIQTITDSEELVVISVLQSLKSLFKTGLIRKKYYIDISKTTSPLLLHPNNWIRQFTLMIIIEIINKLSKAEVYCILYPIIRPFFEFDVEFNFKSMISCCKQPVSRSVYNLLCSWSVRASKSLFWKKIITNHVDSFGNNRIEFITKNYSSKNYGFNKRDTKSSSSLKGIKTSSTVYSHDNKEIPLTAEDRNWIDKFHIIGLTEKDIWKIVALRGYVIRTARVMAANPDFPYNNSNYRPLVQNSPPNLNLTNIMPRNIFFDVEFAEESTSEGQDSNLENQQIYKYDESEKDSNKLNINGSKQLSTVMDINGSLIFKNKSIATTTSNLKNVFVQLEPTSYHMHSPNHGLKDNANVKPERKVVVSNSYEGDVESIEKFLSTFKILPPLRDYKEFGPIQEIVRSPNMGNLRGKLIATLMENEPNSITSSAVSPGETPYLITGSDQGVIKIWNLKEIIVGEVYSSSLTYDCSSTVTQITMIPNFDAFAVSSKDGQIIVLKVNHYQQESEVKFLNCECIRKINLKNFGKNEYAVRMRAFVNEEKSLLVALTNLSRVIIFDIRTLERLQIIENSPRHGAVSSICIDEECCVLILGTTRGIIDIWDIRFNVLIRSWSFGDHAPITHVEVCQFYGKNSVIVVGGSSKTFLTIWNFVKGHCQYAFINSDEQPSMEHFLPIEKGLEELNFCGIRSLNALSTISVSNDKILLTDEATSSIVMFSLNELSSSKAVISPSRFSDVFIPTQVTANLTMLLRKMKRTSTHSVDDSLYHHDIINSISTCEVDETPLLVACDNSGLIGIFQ

[4] = target: the molecule itself; test: SEC-MALS; Atg38 full-length, MIT domain and deletion variants alone on S75 10/30; 20 mM Tris pH 7.9, 300 mM NaCl, 1 mM TCEP

B1: Atg38 C-terminal homodimerization domain (crystallized region, residues 119 to 211) (domain or fragment, S. cerevisiae, UniProt Q05789 119-211, looked up)
chain: YQDTLSPINDPLLMSILNRLQFNLNNDIQLKTEGGKNSKNSEMKINLRLEQFKKELVLYEQKKFKEYGMKIDEITKENKKLANEIGRLRERWD
notes: Atg38, S. cerevisiae, crystallized region, residues 119 to 211; Limits are those seen in the crystal; the proteolysed protein was not purified further; A selenomethionine derivative was used for phasing; also called Atg38 C-terminal domain; C-terminal region of Atg38; source: E. coli, purified full-length Atg38 subjected to limited proteolysis with subtilisin
binding result [1]: binds

B2: GST-Atg38 (1 to 78) (domain or fragment, S. cerevisiae, UniProt Q05789 1-78, looked up)
chain: MSTLAEVYTIIEDAEQECRKGDFTNAKAKYQEAIEVLGPQNENLSQNKLSSDVTQAIDLLKQDITAKIQELELLIEKQ
notes: Atg38, S. cerevisiae, MIT domain, residues 1 to 78; also called MIT domain alone; source: E. coli, purified (Glutathione Sepharose, eluted with glutathione); not shown: GST, N-terminal, kept
binding result [2]: binds

B3: Vps30/Atg6 (subunit of the purified yeast complex I) (natural protein, S. cerevisiae, UniProt Q02948 1-557, looked up)
chain: MKCQTCHLPLQLDPSLEGLSLTQRNLLLSNNSIITATNENVISNKGIEAADNCGPQIPKERLRRLGEIQNIKDLNLKDDKLITDSFVFLNHDDDDNANITSNSREDQRYGNANGNDNKKANSDTSDGTSTFRDHDEEEQEATDEDENQQIQLNSKTLSTQVNAMTNVFNILSSQTNIDFPICQDCCNILINRLKSEYDDAIKERDTYAQFLSKLESQNKEISESNKEKQYSHNLSEKENLKKEEERLLDQLLRLEMTDDDLDGELVRLQEKKVQLENEKLQKLSDQNLMDLNNIQFNKNLQSLKLQYELSLNQLDKLRKINIFNATFKISHSGPFATINGLRLGSIPESVVPWKEINAALGQLILLLATINKNLKINLVDYELQPMGSFSKIKKRMVNSVEYNNSTTNAPGDWLILPVYYDENFNLGRIFRKETKFDKSLETTLEIISEITRQLSTIASSYSSQTLTTSQDESSMNNANDVENSTSILELPYIMNKDKINGLSVKLHGSSPNLEWTTAMKFLLTNVKWLLAFSSNLLSKSITLSPTVNYNDKTISGN
notes: Vps30/Atg6, S. cerevisiae
stoichiometry N [3]: 1

B4: Atg38 capΔ (123 to 181 deleted), recombinant (natural protein, S. cerevisiae, UniProt Q05789 1-226, looked up)
chain: MSTLAEVYTIIEDAEQECRKGDFTNAKAKYQEAIEVLGPQNENLSQNKLSSDVTQAIDLLKQDITAKIQELELLIEKQSSEENNIGMVNNNMLIGSVILNNKSPINGISNARNWDNPAYQDTFKEYGMKIDEITKENKKLANEIGRLRERWDSLVESAKQRRDKQKN
notes: GST fusions were eluted with glutathione or cut with TEV as needed; likely cut for SEC-MALS; source: E. coli, purified (Glutathione Sepharose, S75)
stoichiometry N [4]: 2

B5: Vps34 (subunit of the purified yeast complex I) (enzyme, S. cerevisiae, UniProt P22543 1-875, looked up)
chain: MSLNNITFCVSQDLDVPLKVKIKSLEGHKPLLKPSQKILNPELMLIGSNVFPSSDLIVSLQVFDKERNRNLTLPIYTPYIPFRNSRTWDYWLTLPIRIKQLTFSSHLRIILWEYNGSKQIPFFNLETSIFNLKDCTLKRGFESLKFRYDVIDHCEVVTDNKDQENLNKYFQGEFTRLPWLDEITISKLRKQRENRTWPQGTFVLNLEFPMLELPVVFIEREIMNTQMNIPTLKNNPGLSTDLREPNRNDPQIKISLGDKYHSTLKFYDPDQPNNDPIEEKYRRLERASKNANLDKQVKPDIKKRDYLNKIINYPPGTKLTAHEKGSIWKYRYYLMNNKKALTKLLQSTNLREESERVEVLELMDSWAEIDIDDALELLGSTFKNLSVRSYAVNRLKKASDKELELYLLQLVEAVCFENLSTFSDKSNSEFTIVDAVSSQKLSGDSMLLSTSHANQKLLKSISSESETSGTESLPIVISPLAEFLIRRALVNPRLGSFFYWYLKSESEDKPYLDQILSSFWSRLDKKSRNILNDQVRLINVLRECCETIKRLKDTTAKKMELLVHLLETKVRPLVKVRPIALPLDPDVLICDVCPETSKVFKSSLSPLKITFKTTLNQPYHLMFKVGDDLRQDQLVVQIISLMNELLKNENVDLKLTPYKILATGPQEGAIEFIPNDTLASILSKYHGILGYLKLHYPDENATLGVQGWVLDNFVKSCAGYCVITYILGVGDRHLDNLLVTPDGHFFHADFGYILGQDPKPFPPLMKLPPQIIEAFGGAESSNYDKFRSYCFVAYSILRRNAGLILNLFELMKTSNIPDIRIDPNGAILRVRERFNLNMSEEDATVHFQNLINDSVNALLPIVIDHLHNLAQYWRT
notes: Vps34, S. cerevisiae
stoichiometry N [3]: 1

B6: Atg38 stalkΔ (182 to 209 deleted), recombinant (natural protein, S. cerevisiae, UniProt Q05789 1-226, looked up)
chain: MSTLAEVYTIIEDAEQECRKGDFTNAKAKYQEAIEVLGPQNENLSQNKLSSDVTQAIDLLKQDITAKIQELELLIEKQSSEENNIGMVNNNMLIGSVILNNKSPINGISNARNWDNPAYQDTLSPINDPLLMSILNRLQFNLNNDIQLKTEGGKNSKNSEMKINLRLEQFKKELVLYEQKKWDSLVESAKQRRDKQKN
notes: as for B4
stoichiometry N [4]: 2

B7: Atg14 (subunit of the purified yeast complex I) (natural protein, S. cerevisiae, UniProt P38270 1-344, looked up)
chain: MHCPICHHRAHVVYCAHCINTSPSLLLKLKLDLILLKDENKELNGKVEQILNEAMNYDQLDIKRMEKKKDPLMNSLMKLDVLRMKKNNNLIRHRIEQLNERIYSKRNHISELKVEIDNYKCYKVGTGTDKLREQVEISDAKNKLAQVSKICESARDYKLNLLNNWFVIQKLQDNFQIPFAIAFQPLISLKNFRILPLAITNDSINIMWKYISFFSDILMIKLPYTNKICEQPMFEFSDSIQTVVQRLIKLIINILQICRHLKLVPSTPMDIPWLLDQYDVDGLFYNMVKRNKMKCRSVSLYWTFGMLYSMVLDNMNNPQRGHPARRTAPPPTVTGPHDRWYVVG
notes: Atg14, S. cerevisiae
stoichiometry N [3]: 1

B8: Atg38 tailΔ (210 to 226 deleted), recombinant (domain or fragment, S. cerevisiae, UniProt Q05789 1-209, looked up)
chain: MSTLAEVYTIIEDAEQECRKGDFTNAKAKYQEAIEVLGPQNENLSQNKLSSDVTQAIDLLKQDITAKIQELELLIEKQSSEENNIGMVNNNMLIGSVILNNKSPINGISNARNWDNPAYQDTLSPINDPLLMSILNRLQFNLNNDIQLKTEGGKNSKNSEMKINLRLEQFKKELVLYEQKKFKEYGMKIDEITKENKKLANEIGRLRER
notes: Atg38, S. cerevisiae; GST fusions were eluted with glutathione or cut with TEV as needed; likely cut for SEC-MALS; source: E. coli, purified (Glutathione Sepharose, S75)
stoichiometry N [4]: 2
